The values that follow are results of earlier work, collected in PMC8758526.

pKd: −log10 of the molar value.

One series has as its target TREM-1 (Mus musculus) (UniProt Q9JKE2).
The next series addresses TLR4 (Mus musculus) (UniProt Q9QUK6).
Chain of UniProt Q9QUK6 (Q9QUK6 26-835): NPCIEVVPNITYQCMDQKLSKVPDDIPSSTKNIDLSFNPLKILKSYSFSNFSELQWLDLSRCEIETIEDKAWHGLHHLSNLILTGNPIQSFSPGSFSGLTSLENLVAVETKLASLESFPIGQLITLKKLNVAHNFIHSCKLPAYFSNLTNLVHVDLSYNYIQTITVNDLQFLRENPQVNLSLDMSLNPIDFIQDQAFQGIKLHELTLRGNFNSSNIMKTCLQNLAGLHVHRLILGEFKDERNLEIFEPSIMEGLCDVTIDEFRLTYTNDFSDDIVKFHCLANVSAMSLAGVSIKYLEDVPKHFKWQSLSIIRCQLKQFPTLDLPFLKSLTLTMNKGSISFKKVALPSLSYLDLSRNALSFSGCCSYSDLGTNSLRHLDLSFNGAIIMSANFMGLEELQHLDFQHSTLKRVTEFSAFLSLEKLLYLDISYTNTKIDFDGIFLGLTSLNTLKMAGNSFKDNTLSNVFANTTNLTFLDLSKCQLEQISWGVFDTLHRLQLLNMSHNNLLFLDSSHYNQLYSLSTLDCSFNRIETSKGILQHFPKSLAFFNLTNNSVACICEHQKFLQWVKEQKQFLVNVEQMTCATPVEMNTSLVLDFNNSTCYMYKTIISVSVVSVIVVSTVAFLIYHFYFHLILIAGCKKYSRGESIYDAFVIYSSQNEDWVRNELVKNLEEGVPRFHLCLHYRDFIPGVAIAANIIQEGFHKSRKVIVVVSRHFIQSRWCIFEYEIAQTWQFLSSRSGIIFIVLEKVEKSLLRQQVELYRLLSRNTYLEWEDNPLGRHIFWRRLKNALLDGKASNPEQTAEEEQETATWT

Chain of UniProt Q9JKE2 (Q9JKE2 21-230): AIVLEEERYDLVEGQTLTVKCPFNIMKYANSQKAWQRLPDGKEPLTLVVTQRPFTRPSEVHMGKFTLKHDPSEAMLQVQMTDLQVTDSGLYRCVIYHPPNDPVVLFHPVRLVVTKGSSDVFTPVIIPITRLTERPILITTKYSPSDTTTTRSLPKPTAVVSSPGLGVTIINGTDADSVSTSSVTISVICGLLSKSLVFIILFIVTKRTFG

What is called pKd is −log10 of the Kd, conventionally taken in molar units. Take eCIRP (from UniProt P60824): the pKd is 6.93 with TREM-1 (Mus musculus) and 6.21 in the series with TLR4 (Mus musculus).
